According to article PMC10644982, “Targeting amyotrophic lateral sclerosis by neutralizing seeding-competent TDP-43 in CSF” (Brain Communications, 2023):

Target: the molecule itself
Assay: thioflavin T aggregation kinetics + electron microscopy; synthetic substrate peptide alone at a range of concentrations, seed-free or seeded with the final product of the 15 µM reaction; 40 mM Tris-HCl, 5 mM DTT, 0.002% SDS, 50 µM ThT, 40°C, intermittent shaking; fibrils seen by negative-stain transmission electron microscopy

B1: TDP-43 peptide (352–414) (peptide)
peptide: NNQNQGNMQREPNQAFGSGNNSYSGSNSGAAIGWGSASNAGSGSGFNGGFGSSMDSKSSGWGM
notes: free N- and C-termini (H- ... -OH); also called assay substrate; SAA substrate
binding result: binds
